Assay [1] addresses T1, Biotinylated human TSLP (hTSLP(29-159)-Avi) (human, biotinylated (C-terminal Avi-tag)).
T1 construct: also called thymic stromal lymphopoietin
The experiment in a line: SPR, biotinylated hTSLP on streptavidin chip, peptide injected. On the technique in general: In SPR one partner is held on a chip, and binding of the other changes the refractive index at the surface.

Assay [2] addresses T2, Biotinylated human TSLP (human, biotinylated).
T2 construct: also called hTSLP; thymic stromal lymphopoietin
The experiment in a line: SPR, biotinylated hTSLP on streptavidin chip; Example 146, Ac-(SEQ ID NO: 105).

Assay [3] has as its target T2, Biotinylated human TSLP. Description: SPR, biotinylated hTSLP on streptavidin chip; Example 8, Ac-(SEQ ID NO: 6).
Assay [4] concerns the target T2, Biotinylated human TSLP. The experiment in a line: SPR, biotinylated hTSLP on streptavidin chip; Example 14, Ac-(SEQ ID NO: 12).
Assay [5] addresses T2, Biotinylated human TSLP. Description: SPR, biotinylated hTSLP on streptavidin chip; Example 160, Ac-(SEQ ID NO: 118).
Assay [6] concerns the target T2, Biotinylated human TSLP. Description: SPR, biotinylated hTSLP on streptavidin chip; Example 4, Ac-(SEQ ID NO: 4).
In assay [7] the target is T2, Biotinylated human TSLP. Description: SPR, biotinylated hTSLP on streptavidin chip; Example 148, Ac-(SEQ ID NO: 107).
Assay [8] has as its target TSLP (as used in the human PBMC assay) (UniProt Q969D9 29-159). Description: cell-based or functional assay.
The target in assay [9] is T2, Biotinylated human TSLP. Description: SPR, biotinylated hTSLP on streptavidin chip; Example 153, Ac-(SEQ ID NO: 112).
In assay [10] the target is T2, Biotinylated human TSLP. The experiment in a line: SPR, biotinylated hTSLP on streptavidin chip; Example 157, Ac-(SEQ ID NO: 115).
The target in assay [11] is T2, Biotinylated human TSLP. Description: SPR, biotinylated hTSLP on streptavidin chip; Example 154, Ac-(SEQ ID NO: 113).
Assay [12] addresses T2, Biotinylated human TSLP. The experiment in a line: SPR, biotinylated hTSLP on streptavidin chip; Example 11, Ac-(SEQ ID NO: 9).
The target of assay [13] is T2, Biotinylated human TSLP. The experiment in a line: SPR, biotinylated hTSLP on streptavidin chip; Example 158, Ac-(SEQ ID NO: 116).

*1 amine or outer side, *2 acyl side, *3 side chain or, on linkers, in order; H or OH if unused. Bridges are numbered along the chain shown (N, C = ends). Where no end group is shown, it is not given here. [ ]: non-standard residue; d: D form. The star is where a group is joined. X1 = N3CH2C(O)NH(CH2CH2O)3CH2CH2(CO), [N-]=[N+]=NCC(=O)NCCOCCOCCOCCC(=O)*; N3CH2C(O)NH(CH2CH2O)2CH2C(O) = [N-]=[N+]=NCC(=O)NCCOCCOCC(=O)*; TATA = O=C(CC[*:1])N1CN(C(=O)CC[*:2])CN(C(=O)CC[*:3])C1; Trp(1-Me) = Cn1cc(C[C@H](N)C(=O)O)c2ccccc21; Arg(Me2a) = CN(C)C(=N)NCCC[C@H](N)C(=O)O; Phe(4-F) = N[C@@H](Cc1ccc(F)cc1)C(=O)O; tBuAla = CC(C)(C)C[C@H](N)C(=O)O; NMeA = CN[C@@H](C)C(=O)O

T2 sequence (chain, as listed by the source limits assumed): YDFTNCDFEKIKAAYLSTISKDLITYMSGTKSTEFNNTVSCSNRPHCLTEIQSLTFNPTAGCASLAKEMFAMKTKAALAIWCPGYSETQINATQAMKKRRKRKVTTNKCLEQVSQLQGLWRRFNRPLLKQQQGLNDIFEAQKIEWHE
T1 sequence (chain, as listed by the source limits assumed): as above

As for ACALDPWVCPQWWDCA (linker 2-9-15 via TATA; not fully specified (C-terminus)) [Example 230], the Kd in assay [1] was found to be 960 nM.

With CQWLEDCWRGXC (N-term acetyl; CQWLEDCWRG[2PyrA]C as printed; 3 Cys on TATA) [Example 146], the Kd with Biotinylated human TSLP [2] amounted to 910 nM. This counts as sub-micromolar.

B1: Example 8 (peptide)
peptide: CQWLEDCWRGXC
modifications: not fully specified; N-term acetyl; CQWLEDCWRG[4F3ClPhe]C as printed; 3 Cys on TATA
B1 gave a Kd with Biotinylated human TSLP [3] of 4 nM.

In the assay with Biotinylated human TSLP [4], CQWLEDCWRGXC (N-term acetyl; CQWLEDCWRG[4-ClPhe]C as printed; 3 Cys on TATA) [Example 14] showed a Kd of 6 nM.

B2: Example 160 (peptide)
peptide: CQWXEDCWRGXC
modifications: not fully specified; N-term acetyl; CQW[4-MenL]EDCWRG[4-FPhe]C as printed; 3 Cys on TATA
B2: the dissociation constant Kd in the assay with Biotinylated human TSLP [5] amounted to 10000 nM.

B3: Example 4 (peptide)
peptide: CQWXEDCWRGXC
modifications: not fully specified; N-term acetyl; CQW[tBuA]EDCWRG[4-FPhe]C as printed; 3 Cys on TATA
Turning to B3, in the assay with Biotinylated human TSLP [6], the Kd is 2.7 nM.

As to CQWLEDCWRGXC (N-term acetyl; CQWLEDCWRG[BnA]C as printed; 3 Cys on TATA) [Example 148], the dissociation constant Kd in the assay with Biotinylated human TSLP [7] worked out at 1100 nM.

B4: Example 251 (peptide)
peptide: {N3CH2C(O)NH(CH2CH2O)2CH2C(O)}-C[NMeA][Trp(1-Me)][tBuAla]QDC[Trp(1-Me)][Arg(Me2a)]G[Phe(4-F)]C-NH2
modifications: linker 1-7-12 via TATA; also: dimer: peptides clicked via N-terminal azido linker to N2,N6-dipent-4-ynoyl-L-lysine core (source also calls it trimeric)
notes: Claim 16 speaks of a dimeric or trimeric moiety
Regarding B4, binding in [1] was characterised by a dissociation constant (Kd) of 0.14 nM. In addition, in assay [8], the “CCL17 % Inhibition @ 10 µM, 50 pM TSLP” value was 87% and the “CCL17 % Inhibition @ 10 µM, 400 pM TSLP” value is 85%.

As for ACDELDIPCWIFKTLCA (linker 2-9-16 via TATA; not fully specified (C-terminus)) [Example 232], binding in [1] was characterised by a dissociation constant (Kd) of 8300 nM.

B5: Example 153 (peptide)
peptide: CQWLEDCWRGXC
modifications: not fully specified; N-term acetyl; CQWLEDCWRG[PentFPhe]C as printed; 3 Cys on TATA
Regarding B5, binding with Biotinylated human TSLP [9] was characterised by a dissociation constant (Kd) of 2700 nM.

B6: Example 157 (peptide)
peptide: CQWLEDCWRGXC
modifications: not fully specified; N-term acetyl; CQWLEDCWRG[4-PyrA]C as printed; 3 Cys on TATA
B6: the affinity with Biotinylated human TSLP [10], expressed as Kd, was 3900 nM.

B7: Example 250 (peptide)
peptide: X1-C[NMeA][Trp(1-Me)][tBuAla]QDC[Trp(1-Me)][Arg(Me2a)]G[Phe(4-F)]C-NH2
modifications: linker 1-7-12 via TATA; also: trimer: three peptides clicked via N-terminal azido linker to N-but-3-yn-1-yl-N2,N6-dipent-4-ynoyl-L-lysinamide core
notes: Trimer of identical bicyclic peptides on a tri-alkyne lysinamide core (formula with F3, S9)
As for B7, the affinity in assay [1], expressed as Kd, was 0.027 nM. Moreover, in [8], the “CCL17 % Inhibition @ 10 µM, 50 pM TSLP” value came to 83% and the “CCL17 % Inhibition @ 10 µM, 400 pM TSLP” value worked out at 59%.

B8: Example 154 (peptide)
peptide: CQWXEDCWRGXC
modifications: not fully specified; N-term acetyl; CQW[LMe]EDCWRG[4-FPhe]C as printed; 3 Cys on TATA
Turning to B8, the affinity with Biotinylated human TSLP [11], expressed as Kd, was 2900 nM.

B9: Example 11 (peptide)
peptide: CQWLEDCWRGXC
modifications: not fully specified; N-term acetyl; CQWLEDCWRG[3,4diClPhe]C as printed; 3 Cys on TATA
Turning to B9, the Kd with Biotinylated human TSLP [12] is 5.8 nM.

B10: Example 158 (peptide)
peptide: CQWLEDCWRGXC
modifications: not fully specified; N-term acetyl; CQWLEDCWRG[3-PyrA]C as printed; 3 Cys on TATA
B10 displayed a Kd with Biotinylated human TSLP [13] of 5400 nM.

On to ACQEHDWYCLLYQPECA (linker 2-9-16 via TATA; not fully specified (C-terminus)) [Example 231], for which the Kd in assay [1] is 1800 nM. This counts as single-digit micromolar.

The term Kd denotes the equilibrium constant for the complex coming apart. Low readings indicate tighter binding, high ones weaker binding.

For the origin of these results see patent US20220363718A1 (Bicycle, published 2022).
